# Test results published in the DeepSol protein solubility set.
# Assay: soluble on expression in E. coli; label from the status in PepcDB or PDB records
row,Sequence,soluble on expression in E. coli
1,MRQHKTKYLHQYELQALLNELNLNNEVNWDYFILLIAKTGIRFAEALGVTPDDFDFAHQTLSISKTWDYKSNKSDFAPTKNNSSVRKVPLDWQTVIQFSQLTKKLPEDQPIFVQAKVYNDTVNHYLERLCKHASIPVISVHGLRHTHASLLLYAGVSIASVARRLGHSNMTTTQQTYLHIIQELENQDNDKVMKHLASLILEHHHHHH,soluble
2,MRQIKVVLIGGGTGLSVMARGLREFPIDITAIVTVADNGGSTGKIRDEMDIPAPGDIRNVIAALSDSESVLSQLFQYRFEENQISGHSLGNLLIAGMTNITNDFGHAIKALSKILNIKGRVIPSTNTSVQLNAVMEDGEIVFGETNIPKKHKKIDRVFLEPNDVQPMEEAIDALREADLIVLGPGSLYTSVISNLCVNGISDALIHSDAPKLYVSNVMTQPGETDGYSVKDHIDAIHRQAGQPFIDYVICSTQTFNAQVLKKYEEKHSKPVEVNKAELEKESINVKTSSNLVEISENHLVRHNTKVLSTMIYDIALELISTIPFVPSDKRK,not soluble
3,MRRAFITGVFFLSEVEFSHEYWMRHALTLAKRAWDEREVPVGAVLVHNNRVIGEGWNRPIGRHDPTAHAEIMALRQGGLVMQNYRLIDATLYVTLEPCVMCAGAMIHSRIGRVVFGARDAKTGAAGSLMDVLHHPGMNHRVEITEGILADECAALLSDFFRMRRQEIKAQKKAQSSTD,soluble
4,MRREILVAAAILLDSRGRVLLVGNDWGRRGRVRYTLPGGTVEPGETAVEALVREVREETGLRVRSVEHLAYVIQVEDRRKNERTLAMAFRATYEGLLNPRDPDGHIVEARFFTLEEVEERLKGHLPLLEPLRAYLRGERGRFYAYAGWHAPGVVV,soluble
5,MRRGPARAAALHRAFSLHGKIAAMQRPASSSLPPLDPAASAHSASVARHLRAAIAAAGGWLPFSQWMSAALYAPGLGYYTAGATKLASPADAQGPALPAGDFVTAPELTPLFAATVARQIAQVLRATDTASVLEFGAGTGALAEGVLRALAGLDCPARYLIVEVSADLRQRQQSRLAPFGDRVQWLDQLPDAFAGCVLGNEVLDAMPATLFRWSETGVVQERGVTVDANGEFAWQDRDADAPLAQAVAQRMPPLPGYVSEINLQAEAWVRSMGLWLQRGAALLLDYGFPRSEYYHPQRAGGTLMCHLRHHAHADPFAAPGLQDITSHVDFTAMADAALAGGLQVLGYLSQARFLVNAGLLDALSQLDPADARAYAQAVAPVQKLLSEAEMGELFKVLAVGRDMPEPLLGFARGDRRGTL,not soluble
6,MRRGSGNPERPSLSRDGLRVPPPCPGKRGPGHFSGYHGGMEGIRRAAQRAAEEFLQAFPMAPGSLFVLGGSTSEVLGERVGTRPSLEAAHAVLEGLLPPLLERGVHVAVQACEHLNRALVVERETARAFGLEEVAVFPHPKAGGALATAAFLRFRDPVMVESLKAQAHGGMDIGGVLIGMHLRPVAVPLRLSVRKIGEAVLLAAKTRPKLVGGARAVYTREEMLKKLEEFLPKPP,soluble
7,MRRVTTLLVMMLTVLSACQASPKASPTKPGNAMSNNHPQNPYYSRTDTTRLDLPNEVWKKVLSPELYAVARLAETERAFTGKYWNYEGLGTYYCAACGNTLFRSDAKFASTCGWPSFFETVRPGSVAYREDTSFGMVRTEVLCGRCGAHLGHVFDDGPPPTGKRFCMNSICLDFEPDQPETAKPQ,soluble
8,MRSDVIKKGLERVPHRSLLKALGITDDEMRRPFIGIVSSWNEIIPGHVHLDKVVEAVKAGVRMAGGVPFVFPTIGICDGIAMDHRGMKFSLPSRELIADSIEIVASGFPFDGLVFVPNCDKITPGMMMAMGRLNIPSVLISGGPMLAGRYNGRDIDLITVFEAVGGYKVGKVDEETLKAIEDLACPGAGSCAGLFTANTMNSLAEALGIAPRGNGTVPAVHAKRLRMAKEAGMLVVELVKRDVKPRDIVTLDSFMNAVMVDLATGGSTNTVLHLKAIAESFGIDFDIKLFDELSRKIPHICNISPVGPYHIQDLDDAGGIYAVMKRLQENGLLKEDVMTIYLRKIGDLVREAKILNEDVIRPFDNPYHKEGGLGILFGNLAPEGAVAKLSGVPEKMMHHVGPAVVFEDGEEATKAILSGKIKKGDVVVIRYEGPKGGPGMREMLSPTSAIVGMGLAEDVALITDGRFSGGSHGAVIGHVSPEAAEGGPIGIVKDGDLIEIDFEKRTLNLLISDEEFERRMKEFTPLVKEVDSDYLRRYAFFVQSASKGAIFRKPAAALEHHHHHH,soluble
9,MRSIFLLHFDYKTCEEEDFEDWNLADGKCLNGAKYMYKRRKQDARCLVKRTFKDMILHEIPCDSCTESDYECSSEFVRDAKGDCIPDYDQIALSDICDKANGETVSLEPLQLIKGDKCKKPMEIEAMNIPCEKILRESSNGKKIATIENKFDFEI,not soluble
